Test results as given in the supplement of paper PMC9170038.

Test system: MS2 coat protein
Experiment: apparent KD of MS2 coat protein; designed switch direction (-1 OFF switch, 1 ON switch): -1; higher = weaker reporter binding
Summary of the method: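 An oligonucleotide input, 200 uM small-molecule ligand, or no input was present during titration of SNAP-549-labelled MS2 coat protein, which was doubled from 0.7 or 1.5 nM to 3 µM. Designed RNA switches had been transcribed on Illumina chips by stalled E. coli RNA polymerase. Apparent KD per design is the median over clusters of curves fitted to normalised cluster fluorescence.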

[1] = input ligand: microRNA oligo, concentration not stated
[2] = Eterna round: R95, input ligand: FMN 200 uM
[3] = Eterna round: R95, input ligand: microRNA oligo, concentration not stated
[4] = Eterna round: R95, input ligand: none

For “UACACUGCAUGAGGAUCAAACAUGAGGAUCACCCAUGUAUUGCAAGCUUUUUGCACGUCUUAUAAUUAUGUAGUGUA [Electric Eye 20 - Jieux - Sensor, turn-off variant 1] (Eterna round: R97, puzzle: Sensor, turn-off variant 1)”, the “apparent KD of MS2 coat protein” value (input ligand: FMN 200 uM) was 17.2 nM and the “apparent KD of MS2 coat protein” value (input ligand: none) was 17.2 nM.
“UACAGUCAUCCUUGUUGUUACAUGAGGAUCACCCAUGUUAGUAUAGUUAAGUUAUGUGAGUUUGUUGUUCGUUUUAU [JR_STOV1_v2_Sub077] (Eterna round: R97, puzzle: Sensor, turn-off variant 1)” was tested, and the “apparent KD of MS2 coat protein” value (input ligand: FMN 200 uM) was 149 nM and the “apparent KD of MS2 coat protein” value (input ligand: none) was 169 nM.
With “UACAGUCGAGGAUAUACGAUCGUGCUUCGGCACGUAAGAUCACAUGAGGAUCACCCAUGUAGAAGGCGACUGUA [Mod 9 - Jieux - Exclusion 2] (Eterna round: R97, puzzle: Exclusion 2)” the “apparent KD of MS2 coat protein” value (input ligand: FMN 200 uM) was 226 nM and the “apparent KD of MS2 coat protein” value (input ligand: none) was 35.1 nM.
With “UACAUGAGGAUCACCCAUGUUUUGUCGUGUAUGGUAUUUAUCUAGGAUAUCAAUCUAUGUAUUUAUGAGAAGGAGAAUAUUAAU [JMF's solution 51] (Eterna round: R96, puzzle: Exclusion NG 3)” the “apparent KD of MS2 coat protein” value [1] was 31 nM.
In the case of “UACAUGAGGAUCACCCAUGUUUUGUCGUGUAUGGUAUUUAUCUAGGAUAUCAAUGUAAUUAUUUAUGAGAAGGAGAAUAUUAAU [JMF's solution 40] (Eterna round: R96, puzzle: Exclusion NG 3)”, the “apparent KD of MS2 coat protein” value (input ligand: FMN 200 uM) is reported as 41.2 nM, the “apparent KD of MS2 coat protein” value [1] is reported as 36.1 nM and the “apparent KD of MS2 coat protein” value (input ligand: none) is reported as 44.7 nM.
“UACAUGAGGAUCACCCAUGUUUUGUCGUGUAUGGUAUUUAUCUAGGAUAUCAAUGUGUUUAUUUAUGAGAAGGAGAAUAUUAAU [JMF's solution 39] (Eterna round: R96, puzzle: Exclusion NG 3)” was tested, and the “apparent KD of MS2 coat protein” value (input ligand: FMN 200 uM) was 40 nM, the “apparent KD of MS2 coat protein” value [1] was 31.8 nM and the “apparent KD of MS2 coat protein” value (input ligand: none) was 35.4 nM.
In the case of “UACAUGAGGAUCACCCAUGUUUUGUCGUGUAUGGUAUUUAUCUAGGAUAUCAAUUAAUUUAUUUAUGAGAAGGAGAAUAUUAAU [JMF's solution 14] (Eterna round: R96, puzzle: Exclusion NG 3)”, the “apparent KD of MS2 coat protein” value (input ligand: FMN 200 uM) is reported as 40.3 nM, the “apparent KD of MS2 coat protein” value [1] is reported as 28.1 nM and the “apparent KD of MS2 coat protein” value (input ligand: none) is reported as 38.3 nM.
With “UACAUGAGGAUCACCCAUGUUUUGUCGUGUAUGGUAUUUAUCUAGGAUAUCAAUUGAUUUAUGUAUGAGAAGGAGAAUAUUAAU [JMF's solution 63] (Eterna round: R96, puzzle: Exclusion NG 3)” the “apparent KD of MS2 coat protein” value (input ligand: FMN 200 uM) was 41.1 nM, the “apparent KD of MS2 coat protein” value [1] was 34.9 nM and the “apparent KD of MS2 coat protein” value (input ligand: none) was 34.8 nM.
For “UACAUGAGGAUCACCCAUGUUUUGUCGUGUAUGGUAUUUAUCUAGGAUAUCAAUUUAUUUAUGUAUGAGAAGGAGAAUAUUAAU [JMF's solution 23] (Eterna round: R96, puzzle: Exclusion NG 3)”, the “apparent KD of MS2 coat protein” value (input ligand: FMN 200 uM) was 40.8 nM, the “apparent KD of MS2 coat protein” value [1] was 29.8 nM and the “apparent KD of MS2 coat protein” value (input ligand: none) was 44.7 nM.
For “UACAUGAGGAUCACCCAUGUUUUGUCGUGUAUGGUAUUUAUCUAGGAUAUCAAUUUGUUUAGUUAUGAGAAGGAGAAUAUUAAU [JMF's solution 71] (Eterna round: R96, puzzle: Exclusion NG 3)”, the “apparent KD of MS2 coat protein” value (input ligand: FMN 200 uM) was 35.9 nM, the “apparent KD of MS2 coat protein” value [1] was 33.3 nM and the “apparent KD of MS2 coat protein” value (input ligand: none) was 37.6 nM.
“UACAUGAGGAUCACCCAUGUUUUGUCGUGUAUGGUAUUUAUCUAGGAUAUCAAUUUGUUUAUGUAUGAGAAGGAGAAUAUUAAU [JMF's solution 72] (Eterna round: R96, puzzle: Exclusion NG 3)” was tested, and the “apparent KD of MS2 coat protein” value (input ligand: FMN 200 uM) was 32.9 nM, the “apparent KD of MS2 coat protein” value [1] was 28.4 nM and the “apparent KD of MS2 coat protein” value (input ligand: none) was 35.6 nM.
For “UACAUGAGGAUCACCCAUGUUUUGUCGUGUAUGGUAUUUAUCUAGGAUAUCACUUUAUUUAUUUAUGAGAAGGAGAAUAUUAAU [JMF's solution 8] (Eterna round: R96, puzzle: Exclusion NG 3)”, the “apparent KD of MS2 coat protein” value (input ligand: FMN 200 uM) was 34.2 nM, the “apparent KD of MS2 coat protein” value [1] was 27.1 nM and the “apparent KD of MS2 coat protein” value (input ligand: none) was 37.9 nM.
With “UACAUGAGGAUCACCCAUGUUUUGUCGUGUUUGGUACCCGUUUAGGAUAUCGUGUUAUUGGAUCGCGAGAAGGAGAGUAUCUUU [Excl-NG3-LRO08] (Eterna round: R96, puzzle: Exclusion NG 3)” the “apparent KD of MS2 coat protein” value (input ligand: FMN 200 uM) was 26.8 nM, the “apparent KD of MS2 coat protein” value [1] was 26 nM and the “apparent KD of MS2 coat protein” value (input ligand: none) was 31.7 nM.
“UACCGGCGGACCGAGGCUUUUUGCUCGUCUUAUGCUACGACAUGAGGAUCACCCAUGUGGUGGUGGUCCGUUGUAGU [JL ViennaUCT Bitein mod 7] (puzzle: Sensor v3, turn-off variant 2)” was tested, and the “apparent KD of MS2 coat protein” value [2] was 106 nM, the “apparent KD of MS2 coat protein” value [3] was 13.3 nM and the “apparent KD of MS2 coat protein” value [4] was 122 nM.
In the case of “UACCUGAGGCAAAGCUUUAGGUAAACAUGAGGAUCACCCAUGUAGGAUAUGGUAGGCAAAGCUUACCAGAAGGACAUGAAAAUU [Mat - Exclusion NG 3 - Mod of JL - D36] (Eterna round: R96, puzzle: Exclusion NG 3)”, the “apparent KD of MS2 coat protein” value (input ligand: FMN 200 uM) is reported as 333 nM, the “apparent KD of MS2 coat protein” value [1] is reported as 53.3 nM and the “apparent KD of MS2 coat protein” value (input ligand: none) is reported as 87.8 nM.
“UACCUGAGGCUUUGCUUUAGGUUUACAUGAGGAUCACCCAUGUAGGAUAUGGUAGGCUUUGCUUACCAGAAGGACAUGUUAAUU [JL ENG3 1.08] (Eterna round: R96, puzzle: Exclusion NG 3)” was tested, and the “apparent KD of MS2 coat protein” value (input ligand: FMN 200 uM) was 190 nM, the “apparent KD of MS2 coat protein” value [1] was 64.9 nM and the “apparent KD of MS2 coat protein” value (input ligand: none) was 59.9 nM.
For “UACGAAGAGUGAGGAUAUGUGCGACAAAGUUGCACAGAAGGCACAUGAGGAUCACCCAUGUAAGCUAGGUCGAAAGACCUAGCG [Omei Exc(NG)1 Av4] (Eterna round: R96, puzzle: Exclusion NG 1)”, the “apparent KD of MS2 coat protein” value (input ligand: FMN 200 uM) was 130 nM, the “apparent KD of MS2 coat protein” value [1] was 21 nM and the “apparent KD of MS2 coat protein” value (input ligand: none) was 44.7 nM.
For “UACGAGCUAGGAUAUGCUUUGGGCUCGCUUUCCUUCGAUAAACUUGAGGAUCACCCAAGUAGAAGGAGCUUGUA [Mod 33 - Jieux - Exclusion 2] (Eterna round: R97, puzzle: Exclusion 2)”, the “apparent KD of MS2 coat protein” value (input ligand: FMN 200 uM) was 61.5 nM and the “apparent KD of MS2 coat protein” value (input ligand: none) was 25.9 nM.
In the case of “UACUGGACAGGAUAUGUACUUGAGCACUUGAGGAUCACCCAAGUCAUCAAGUACUCAGGCACAGAAGGGUUAAUUU [jl-ex5.4.64 ViennaUCT mod] (Eterna round: R97, puzzle: Exclusion 5)”, the “apparent KD of MS2 coat protein” value (input ligand: FMN 200 uM) is reported as 330 nM and the “apparent KD of MS2 coat protein” value (input ligand: none) is reported as 129 nM.
“UACUUCCGAGGAUAUACAUGAGGAUCACCCAUGUGCUUCAGCAUUUUUUGAUGCAUGGGUAGAAGGCGGUAGUU [LRO-Excl3-17] (puzzle: Exclusion 3)” was tested, and the “apparent KD of MS2 coat protein” value [3] was 299 nM.
For “UACUUGUUAGGAUAUCUUACAUUUGCAUCAUAGCAACUAUUGGAGAAGGGACAUGAGGAUCACCCAUGUUUGGU [tap-tap-tappy13] (Eterna round: R97, puzzle: Exclusion 4)”, the “apparent KD of MS2 coat protein” value (input ligand: FMN 200 uM) was 48.4 nM and the “apparent KD of MS2 coat protein” value (input ligand: none) was 41.9 nM.
“UAGAAACAUGAGGAUCACCCAUGUGAGGAUAUGAAAAAGAAAAGAAAAGAAAGAAGAAUCAGAAGGCACAAAGC [salish99-ex1_r3_092] (puzzle: Exclusion 1)” was tested, and the “apparent KD of MS2 coat protein” value [2] was 28.6 nM, the “apparent KD of MS2 coat protein” value [3] was 17.7 nM and the “apparent KD of MS2 coat protein” value [4] was 36.6 nM.
“UAGAAGGUAGGAUAUACGAAUAAAUAGGGUAGAAUAAUAACACAUGAGGAUCACCCAUGUAGAAGGACCAAGAU [Mat - Exclusion 2 - Mod of my Tesla design - D30] (puzzle: Exclusion 2)” was tested, and the “apparent KD of MS2 coat protein” value [2] was 42.9 nM, the “apparent KD of MS2 coat protein” value [3] was 20.7 nM and the “apparent KD of MS2 coat protein” value [4] was 20.7 nM.
“UAGAAGGUAGGAUAUACGAAUAAAUAGGGUAGUAAGAAUACACAUGAGGAUCACCCAUGUAGAAGGACCAAGAU [Mat - Exclusion 2 - Mod of my Tesla design - D32] (puzzle: Exclusion 2)” was tested, and the “apparent KD of MS2 coat protein” value [2] was 43.1 nM, the “apparent KD of MS2 coat protein” value [3] was 19.5 nM and the “apparent KD of MS2 coat protein” value [4] was 20.9 nM.
For “UAGAAGUUCAACGAGUGAAACAUGAGGAUCACCCAUGUGGUGGUAAGGAACAAGCUUUUUGCACGUACUUAUGAGGA [JR_SV3TOV1_Sub004] (puzzle: Sensor v3, turn-off variant 1)”, the “apparent KD of MS2 coat protein” value [2] was 287 nM, the “apparent KD of MS2 coat protein” value [3] was 400 nM and the “apparent KD of MS2 coat protein” value [4] was 452 nM.
“UAGAAUCGAGGAUAUACAUGAGGAUCACCCAUGUGUGGCCAUACUGUGUGGUCGUCAGGUAGAAGGCGAUUAUA [Exclusion 3 - Mod of Jieux's Gilly Gone Silly 23] (puzzle: Exclusion 3)” was tested, and the “apparent KD of MS2 coat protein” value [3] was 45.4 nM.
“UAGAUACAUGAGGAUCACCCAUGUGAGGAUAUGAGUCAGUCACGGUGACGUGGCUGACUCAGAAGGCACAAAGG [Mat - Exclusion 1 - JL Mod - D36] (Eterna round: R97, puzzle: Exclusion 1)” was tested, and the “apparent KD of MS2 coat protein” value (input ligand: FMN 200 uM) was 365 nM and the “apparent KD of MS2 coat protein” value (input ligand: none) was 202 nM.
In the case of “UAGAUGGGAGGAUAUACAUAGAUACAGAUUCGUGUAGUGCUACAUGAGGAUCACCCAUGUAGAAGGCCCGUCUU [JL-ex2-2.21 Mayanne mod] (puzzle: Exclusion 2)”, the “apparent KD of MS2 coat protein” value [3] is reported as 15.2 nM.
For “UAGAUGGGAGGAUAUACGUAGAUGCAGAUUCGUGUGGUGCUACAUGAGGAUCACCCAUGUAGAAGGCCCGUCUU [JL-ex2-2.24 Mayanne mod] (puzzle: Exclusion 2)”, the “apparent KD of MS2 coat protein” value [3] was 15.4 nM.
In the case of “UAGAUGGGAGGAUAUGCGUAGAUACGGAUUCGUGUGGUGCUACAUGAGGAUCACCCAUGUAGAAGGCCCGUCUU [JL-ex2-2.27 Mayanne mod] (puzzle: Exclusion 2)”, the “apparent KD of MS2 coat protein” value [3] is reported as 12 nM.
In the case of “UAGAUGUGAGGAUAUGGUAAAGAUAGAAUGAUGAAAGAACUCCAGAAGGCACAUGAGGAUCACCCAUGUAGAUG [Mat - Exclusion 4 - Mod of JL - D29] (puzzle: Exclusion 4)”, the “apparent KD of MS2 coat protein” value [3] is reported as 22.3 nM.
For “UAGCACGGAGGAUAUUGGCUCGCACACAUGAGGAUCACCCAUGUGACUUUAUACUUCCGCUAAGAAGGCCGUGUGG [Eternabot (L1) Solution 93] (Eterna round: R97, puzzle: Exclusion 5)”, the “apparent KD of MS2 coat protein” value (input ligand: FMN 200 uM) was 13.2 nM and the “apparent KD of MS2 coat protein” value (input ligand: none) was 14.3 nM.
